From doi:10.1101/2021.04.08.436756
Like-named read-outs stand apart in the source and are kept apart here.

Columns and labels:
myc-GIPR-Rluc [1] = target: T1, myc-GIPR-Rluc (UniProt P48546)
T1 sequence: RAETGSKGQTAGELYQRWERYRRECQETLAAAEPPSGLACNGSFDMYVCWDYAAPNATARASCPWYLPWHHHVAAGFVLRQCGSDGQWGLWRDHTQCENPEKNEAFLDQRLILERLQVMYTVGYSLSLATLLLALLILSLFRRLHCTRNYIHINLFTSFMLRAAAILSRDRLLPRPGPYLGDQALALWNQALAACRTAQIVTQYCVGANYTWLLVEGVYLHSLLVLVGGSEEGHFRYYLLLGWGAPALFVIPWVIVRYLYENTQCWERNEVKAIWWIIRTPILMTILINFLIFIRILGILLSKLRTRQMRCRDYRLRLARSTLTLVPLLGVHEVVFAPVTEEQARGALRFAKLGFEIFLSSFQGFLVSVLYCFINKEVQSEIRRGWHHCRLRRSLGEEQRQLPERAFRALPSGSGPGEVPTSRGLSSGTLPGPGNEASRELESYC

myc-GIPR-Rluc [2] = target: T1, myc-GIPR-Rluc; remark: listed apart in the source

Substance	ERK1/2 phosphorylation, biphasic model, high potency component; pEC50 1 (myc-GIPR-Rluc [1])	ERK1/2 phosphorylation, biphasic model, low potency component; pEC50 2 (myc-GIPR-Rluc [1])	ERK1/2 phosphorylation, biphasic model, high potency component; pEC50 1 (myc-GIPR-Rluc [2])	ERK1/2 phosphorylation, biphasic model, low potency component; pEC50 2 (myc-GIPR-Rluc [2])	[Ca^2+]i mobilisation, HEK-293S cells with untagged GIPR; pEC50 (myc-GIPR-Rluc [2])	cAMP accumulation, 8 min stimulation, HEK-293S cells with untagged GIPR; pEC50 (myc-GIPR-Rluc [2])
GIP (D-Ala2) (from UniProt P09681 52-93) (peptide)	8.72 -logEC50	6.88 -logEC50				
GIP (1-42) (from UniProt P09681 52-93) (peptide)			9.13 -logEC50	6.22 -logEC50	8.7 -logEC50	9.83 -logEC50
GIP (Pro3) (peptide)	7.49 -logEC50	4.5 -logEC50				
